According to patent US9388213B2, “Polycomb repressive complex 2 (PRC2) inhibitors and uses thereof” (The Rockefeller University, priority 2012, dated 2016):

How the values were obtained:
PRC2 [1] = target: T1, PRC2 (Homo sapiens, UniProt Q15910); test: in vitro PRC2 histone methyltransferase reactions with H3 peptides added in trans; type: biochemical; details: for effect on PRC2 activity relative to the no peptide control: H3 peptides (18-37) in trans, purified wildtype mononucleosomes (FIG. 3A)
T1 construct: Mono Q fractions containing stoichiometric components of PRC2 were pooled; made in house; FLAG-M2 immunoprecipitation from nuclear extract, then Mono Q
Experimental: Human EED protein containing an N-terminal FLAG-epitope was cloned in pCDH-EF1alpha-IRES-Puro (System Biosciences). Resulting lentivirus were used to establish stable 293T and Hela cell lines that express FLAG-hEED. Nuclear extracts were prepared from washed cell pellets as previously described (Lewis et al., “Daxx is an H3.3-specific Histone Chaperone and Cooperates with ATRX in Replication-Independent Chromatin Assembly at Telomeres,” Proc Natl Acad Sci USA 107: 14075-14080 (2010), which is hereby incorporated by reference in its entirety). FLAG-M2 immunoprecipitation of clarified nuclear extract was performed, followed by washing (250 mM KCl) and elution with 3XFLAG peptide (400 ng/μL). Eluate from the FLAG M2 beads was loaded onto a Mono Q ion exchange column. Mono Q fractions containing stoichiometric components of PRC2 were pooled. HEK293T cells expressing epitope-tagged Histone H3 were hypotonically lysed. Washed nuclei were resuspended in micrococcal nuclease digestion buffer (20 mM HEPES, pH 7.9, 30 mM KCl, 2 mM CaCl2, 0.4 mM PMSF, 3× Protease Inhibitor Cocktail (Roche). Micrococcal nuclease (Worthingtons, 15 U/μL) was added to nuclei, followed by incubation at 30° C. for 5-30 minutes. Reactions were returned to ice, followed by addition of 3 mM EDTA, 3 mM EGTA, 120 mM NaCl, 0.1% Triton. Nuclei were dounced (Wheaton A×10), followed by centrifugation 15K rpm in SS34. FLAG M2 beads were incubated with clarified supernatant at 4° C. Washed beads (150 mM KCl) were eluted with 3× FLAG peptide ([…]). DNA from M2 FLAG eluate fractions was resolved by gel electrophoresis for estimation of chromatin lengths. Fractions of similar chromatin (DNA) lengths were pooled and dialyzed (20 mM HEPES, pH 7.9, 10 mM KCl, 10% Glycerol, 0.4 mM PMSF, 0.5 mM DTT). Purified PRC2, peptides, and chromatin substrates were added to reaction buffer (50 mM HEPES, pH 7.9, 0.5 mM DTT, 0.4 mM PMSF). Labeled S-adenosyl-methionine (3H-SAM) was added to reactions (225 μM), followed by incubation at 30° C. The reactions were stopped by binding to P81 filter paper (GE Health) for scintillitation counting, or the addition of SDS-PAGE for autoradiography.

PRC2 [2] = target: T1, PRC2; test: kinetic studies of PRC2 methyltransferase assays with varying mononucleosome substrate concentrations; type: biochemical; details: initial velocity versus nucleosome substrate concentration
Experimental: Purified PRC2, peptides, and chromatin substrates were added to reaction buffer (50 mM HEPES, pH 7.9, 0.5 mM DTT, 0.4 mM PMSF). Labeled S-adenosyl-methionine (3H-SAM) was added to reactions (225 μM), followed by incubation at 30° C. The reactions were stopped by binding to P81 filter paper (GE Health) for scintillitation counting, or the addition of SDS-PAGE for autoradiography.

T1 sequence (Q15910 whole entry): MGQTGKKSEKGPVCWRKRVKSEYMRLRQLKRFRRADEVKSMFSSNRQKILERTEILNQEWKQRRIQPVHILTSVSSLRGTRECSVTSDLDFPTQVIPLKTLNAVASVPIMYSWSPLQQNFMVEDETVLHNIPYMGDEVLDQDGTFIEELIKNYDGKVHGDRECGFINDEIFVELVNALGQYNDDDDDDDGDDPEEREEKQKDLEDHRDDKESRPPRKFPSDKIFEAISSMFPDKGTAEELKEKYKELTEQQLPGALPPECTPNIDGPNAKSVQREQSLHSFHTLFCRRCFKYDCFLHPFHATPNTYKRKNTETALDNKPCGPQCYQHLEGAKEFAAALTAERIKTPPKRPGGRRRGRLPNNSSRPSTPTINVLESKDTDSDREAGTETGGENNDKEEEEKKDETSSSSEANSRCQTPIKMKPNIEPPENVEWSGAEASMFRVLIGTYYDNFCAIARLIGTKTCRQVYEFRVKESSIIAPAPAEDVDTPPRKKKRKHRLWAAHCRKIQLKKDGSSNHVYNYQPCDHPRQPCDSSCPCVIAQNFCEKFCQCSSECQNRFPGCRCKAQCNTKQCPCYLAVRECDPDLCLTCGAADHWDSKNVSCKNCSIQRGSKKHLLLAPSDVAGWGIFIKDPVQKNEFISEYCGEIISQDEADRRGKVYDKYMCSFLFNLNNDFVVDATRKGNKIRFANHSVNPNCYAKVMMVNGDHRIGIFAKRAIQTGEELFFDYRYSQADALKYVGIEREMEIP
T1 sequence (O75530 whole entry partner): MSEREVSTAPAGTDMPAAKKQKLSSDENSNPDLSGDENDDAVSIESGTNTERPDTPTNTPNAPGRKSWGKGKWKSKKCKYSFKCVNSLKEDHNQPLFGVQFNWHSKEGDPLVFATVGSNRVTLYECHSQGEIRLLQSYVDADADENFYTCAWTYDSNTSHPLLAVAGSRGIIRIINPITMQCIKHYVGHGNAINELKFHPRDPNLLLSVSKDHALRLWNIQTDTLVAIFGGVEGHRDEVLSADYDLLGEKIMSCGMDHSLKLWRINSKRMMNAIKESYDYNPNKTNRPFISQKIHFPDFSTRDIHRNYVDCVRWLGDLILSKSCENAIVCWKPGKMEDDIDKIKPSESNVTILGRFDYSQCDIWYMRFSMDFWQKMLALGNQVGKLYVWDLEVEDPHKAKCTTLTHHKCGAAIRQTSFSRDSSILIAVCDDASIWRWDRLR
T1 sequence (Q15022 whole entry partner): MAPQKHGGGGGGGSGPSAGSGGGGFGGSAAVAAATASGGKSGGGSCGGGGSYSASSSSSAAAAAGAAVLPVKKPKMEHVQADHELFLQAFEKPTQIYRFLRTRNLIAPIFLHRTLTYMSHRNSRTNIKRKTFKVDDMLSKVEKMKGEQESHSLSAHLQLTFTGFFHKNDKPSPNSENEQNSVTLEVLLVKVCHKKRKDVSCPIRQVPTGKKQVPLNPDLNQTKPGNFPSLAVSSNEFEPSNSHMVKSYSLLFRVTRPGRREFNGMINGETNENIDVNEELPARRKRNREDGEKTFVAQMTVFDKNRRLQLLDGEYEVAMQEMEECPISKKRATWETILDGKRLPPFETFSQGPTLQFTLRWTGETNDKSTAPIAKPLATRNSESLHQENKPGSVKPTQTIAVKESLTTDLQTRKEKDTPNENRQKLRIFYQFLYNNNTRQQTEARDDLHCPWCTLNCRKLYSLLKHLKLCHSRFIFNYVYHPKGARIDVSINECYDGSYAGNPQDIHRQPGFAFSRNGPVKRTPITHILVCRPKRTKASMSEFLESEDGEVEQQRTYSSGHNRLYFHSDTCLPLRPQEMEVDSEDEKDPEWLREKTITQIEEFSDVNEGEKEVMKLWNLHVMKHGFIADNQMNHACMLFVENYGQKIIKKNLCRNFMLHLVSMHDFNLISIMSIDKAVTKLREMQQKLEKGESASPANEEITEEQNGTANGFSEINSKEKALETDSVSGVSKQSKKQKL
T1 sequence (Q09028 whole entry partner): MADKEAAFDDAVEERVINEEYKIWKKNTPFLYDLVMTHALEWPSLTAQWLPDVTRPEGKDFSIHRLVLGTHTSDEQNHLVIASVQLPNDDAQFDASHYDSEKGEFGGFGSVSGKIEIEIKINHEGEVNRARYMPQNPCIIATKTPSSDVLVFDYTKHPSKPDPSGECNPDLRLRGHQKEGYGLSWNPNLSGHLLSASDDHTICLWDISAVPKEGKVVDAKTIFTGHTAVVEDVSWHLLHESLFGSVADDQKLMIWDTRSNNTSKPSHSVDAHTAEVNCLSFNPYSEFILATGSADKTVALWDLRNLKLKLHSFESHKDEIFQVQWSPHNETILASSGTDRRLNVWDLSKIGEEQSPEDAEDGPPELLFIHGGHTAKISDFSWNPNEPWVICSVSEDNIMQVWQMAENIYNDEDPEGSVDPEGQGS

Substance: K27ac: H3 peptide (18-37) acetylated at K27
- change in PRC2 activity on titration against K27me3 peptide (PRC2 [1]; 9:1 ratio of K27ac:K27me3 peptide (FIG. 3D)): no decrease
- effect on PRC2 activity relative to the no peptide control (PRC2 [1]): little stimulation
- effect on PRC2 activity on titration into reactions with constant low concentration of K27me3 peptide (PRC2 [1]; constant low K27me3 peptide (FIG. 3F)): no decrease
- effect on apparent Vmax (PRC2 [2]): did not decrease

Substance: K27me3: H3 peptide trimethylated at K27, allosteric activator of PRC2
- effect on PRC2 activity towards mononucleosome or oligonucleosome templates (PRC2 [1]; 10 or 100 μM peptide (FIG. 2C)): strongly stimulated
- effect on PRC2 activity relative to the no peptide control (PRC2 [1]): strongly stimulated

Substance: Lys^27 replaced by Leu: H3 peptide (18-37) containing Lys27 replaced by Leu (KQLATKAARLSAPSTGGVKK)
- inhibitory effect on PRC2 in vitro (PRC2 [1]; 50 or 100 μM H3 peptide (18-37), reconstituted nucleosomes (FIGS. 5B and 5C)): no inhibitory effect

Substance: unmodified: unmodified H3 peptide (18-37)
- effect on PRC2 activity relative to the no peptide control (PRC2 [1]): little stimulation
